Data from the nanobody polyreactivity screen of Harvey et al. (2022).

Experiment: yeast display, Sf9 membrane polyspecificity reagent, FACS + sequencing; frameworks hold sequencing errors
Method in brief: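 Genes from sorted yeast were amplified by colony PCR, read by MiSeq 2 × 250 sequencing and filtered on CDR length. These cells carried a synthetic nanobody library in Saccharomyces cerevisiae BJ5465 and were sorted by FACS into low and high (top ~1%) gates on anti-HA and streptavidin fluorescence. Polyreactivity is labelled according to the gate of origin.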

Sequence | polyreactivity (PSR sort gate)
QVQLVESGGGLVQAGGSLRLSCAASGSTFAANAMGWYRQAPGKERELVATISYRGGSTYYADSVKGRFTISRDNAKNTVYLQMNSLKPEDTAVYYCAAKLYYAFYSRYNYWGQGTQVTVSS | high polyreactivity
QVQLVESGGGLVQAGGSLRLSCAASGSTFAAYAMGWYRPAPGTERELVAAISASGGSTYYADSVKGRFTISRDNEKNTVYLQMNSLKPEDTAVYYCAARVFRGLGEYYWGQGTQVTVSS | high polyreactivity
QVQLVESGGGLVQAGGSLRLSCAASGSTFADYAMGWYRQAPGKERELVAAITSSGGDTYYADSVKGRFTISRDNAKNTVYLQMNSLKPEDTAVYYCAVVDTLYDSKYDYWGQGTQVTVSS | low polyreactivity
QVQLVESGGGLVQAGGSLRLSCAASGSTFAEYAMGWYRQAPGKERELVATITSSGGGTYYADSVKGRFTISRDNAKNTVYLQMNSLKPEDTAVYYCGQGTQVTVSS | low polyreactivity
QVQLVESGGGLVQAGGSLRLSCAASGSTFAFNAMGWYRPAPGKERELVASISGSGSSTYYADSVKGRFTISRDNAKNTVYLQMNSLKPEDTAVYYCAARVGARVSPPRRHGRFNYWGQGTQVTVSS | high polyreactivity
QVQLVESGGGLVQAGGSLRLSCAASGSTFAFNAMGWYRQAPGKERELVAGITRSGGRTYFADSVKGRFTISRDYAKNTVYLQMNSLKPEDTAVYYCAARRSGSKSGLFDYWGQGTQVTVSS | low polyreactivity
QVQLVESGGGLVQAGGSLRLSCAASGSTFAFYAMGWYRQAAGKERELVAAITWDGGTTYYADSVKGRFTLSRDNAKNTVYLQMNSLKPEDTAVYYCASDYAWFSIYDNVPSAPGYDYWGQGTQVTVSS | low polyreactivity
QVQLVESGGGLVQAGGSLRLSCAASGSTFAGFTMRWYRQAPGKERELVAAITTRGGRTYYADSVKGRFTISRDNAKNTVYLQMNSLKPEDTAVYYCAAVSRYYAELMYYWGQGTQVTVSS | high polyreactivity
QVQLVESGGGLVQAGGSLRLSCAASGSTFAGNAMGWYRQAPGKERELVAAISSSGAGTYYADSVKGRFTISRDNAKNTVYLQMNSLKPEVTAVYYCNVGSRALRRRVRSVSFDYWGQGTQVTVSS | low polyreactivity
QVQLVESGGGLVQAGGSLRLSCAASGSTFAGNAMGWYRQAPGKERELVAAITSGTGTHYADSVKGRFSISRDNAKNTVYLQMNSLKPEDTAVYYCAAEVWSWAGIWGYEYWGQGTQVTVSS | low polyreactivity
QVQLVESGGGLVQAGGSLRLSCAASGSTFAGNGMGWSRQAPGKERELVAGIDVTGGSTYYADSVKGRFTISRDNAKNTVYLQMNSLKPEDTAVYYCNARYVYHSSFAGFDYWGQGTQVTVSS | low polyreactivity
QVQLVESGGGLVQAGGSLRLSCAASGSTFAGNGMGWYRQAPGKERELVAGIDVTGGSTYYADSVKGRFTISRDNAKNTVYLQMNRLKPEDTAVYYCNARYVYHSSFAGFDYWGQGTQVTVSS | low polyreactivity
QVQLVESGGGLVQAGGSLRLSCAASGSTFAGNGMGWYRQAPGKERELVAGIDVTGGSTYYADSVKGRFTISRDNAKNTVYLQMNSLKPEDTAVYYCNARYVYHSSFAGFDYWGQGTQVTVSS | low polyreactivity
QVQLVESGGGLVQAGGSLRLSCAASGSTFAGYAMGWYRQAPGKERELVAAISYSGGTTYYADSVKGRFTISRDNAKNTVYLQMNSLKPEDTAVFYCAARKKYKTPSYDMYYWGQGTQVTVSS | high polyreactivity
QVQLVESGGGLVQAGGSLRLSCAASGSTFAGYVMGWYRQAPGKERELVADISGRGGNTYYADSVKGRFTISRDNAKNTVYLQMNRLKPEDTAVYYCASILSRRYGYWGQGTQVTVSS | high polyreactivity
QVQLVESGGGLVQAGGSLRLSCAASGSTFAINAMGWYRQAPGKERELVAAISSSGSTNYADSVKGRFTISRDNAKNTVYLQMNSLKPEVTAVYYCAADRVWGTPQAYVPSQFDYWGQGTQVTVSS | low polyreactivity
QVQLVESGGGLVQAGGSLRLSCAASGSTFAINTMGSYREAPGKERELVAAISWSGGSTYYADSVKGRFTISRDNAKNTVYLQMNSLKPEDTAVYYCAARVPGWYVPGYNVYYWGQGTQVTVSS | high polyreactivity
